{
  "source": "paper PMC10019796",
  "molecular_target": "mtDsbC-SARS-CoV-2 RBD wild type fusion protein (SARS-CoV-2) (UniProt P0DTC2)",
  "test": "BLI; biotinylated mtDsbC-RBD (20 µg/mL) immobilised on streptavidin (SA) biosensors, Fabs as analytes at three nanomolar concentrations; Octet RED384, 30 °C, 1000 rpm, 1 × PBS Kinetics Buffer; 1:1 interaction model, global fit",
  "data": [
    {"substance": "REGN10987 (L93Q) Fab", "values": [
      {"measurement": "Kd", "value": "> 1000", "unit": "nM"}
    ]}
  ]
}
